According to patent US9844546B2, “Antibody against human HIF hydroxylase” (OXFORD UNIVERSITY INNOVATION LIMITED, priority 2001, dated 2017):
“Also recorded” adds a separate entry of the source.

Target: T1, HIF-1α/pVHL interaction (Homo sapiens, UniProt P40337)
T1 construct: made in house; host or cells: TNT rabbit reticulocyte lysate (Promega), in vitro transcription/translation
Experiment: Polypeptide blocking assay of HIF-1α and pVHL.HA IVTT mixture, anti-HA immunoprecipitation
Assay type: binding
Protocol: Further studies were performed using synthetic polypeptides as inhibitors of the HIF-1α/pVHL interaction (23). […] Results for a series of polypeptides derived from this domain are summarized in FIG. 1B and implicate a similar minimal interaction domain. […] This polypeptide comprises HIF-1α polypeptide residues 556 to 574 and its ability to block binding following exposure to a variety of direct oxidation conditions was assessed.
We synthesized a polypeptide (HIF-1α residues 556-574), containing a trans-4-hydroxy-S-proline residue at position 564 (19:Pro564Hyp), since the trans-4-hydroxylation is the commonest enzymatic proline oxidation (25). A polypeptide blocking assay was carried out using the 19:Pro564Hyp modified polypeptide and, as a control, the unmodified polypeptide without the trans-4-hydroxylation (19:WT). The 19:WT polypeptide was either incubated with cell extract before the binding assay or was untreated. The 19:Pro564Hyp polypeptide was added to a mixture of HIF-1α and pVHL-HA IVTTs at a concentration of 1, 0.25, 0.05 or 0.01 μM and the cell extract treated or untreated 19:WT polypeptide at a concentration of 0.5 μM. Interaction of HIF-1α with pVHL was then assayed by anti-HA immunoprecipitation. […] A pVHL capture assay was then carried out using biotinylated synthetic polypeptides. The same polypeptides, 19:Pro564Hyp and 19:WT were assessed for the ability to capture wild type or mutant (Pro86His) pVHL. […] In both cases capture was specific for wild type, as opposed to mutant, pVHL.
• 1. G. L. Semenza, Genes Dev 14, 1983-91. (2000). • 2. N. V. Iyer, et al., Genes Dev. 12, 149-162 (1997). • 3. E. Maltepe, J. V. Schmidt, D. Baunoch, C. A. Bradfield, M. C. Simon, Nature 386, 403-407 (1997). • 4. G. L. Wang, B.-H. Jiang, E. A. Rue, G. L. Semenza, Proc. Natl. Acad. Sci. USA 92, 5510-5514 (1995). • 5. S. Salceda, J. Caro, J. Biol. Chem. 272, 22642-22647 (1997). • 6. L. E. Huang, J. Gu, M. Schau, H. F. Bunn, Proc. Natl. Acad. Sci. USA 95, 7987-7992 (1998). • 7. M. S. Wiesener, et al., Blood 92, 2260-2268 (1998). • 8. P. H. Maxwell, et al., Nature 399, 271-275 (1999). • 9. K. Iwai, et al., Proc. Natl. Acad. Sci. USA 96, 12436-12441 (1999). • 10. J. Lisztwan, G. Imbert, C. Wirbelauer, M. Gstaiger, W. Krek, Genes Dev 13, 1822-33 (1999). • 11. M. E. Cockman, et al., J Biol Chem (2000). • 12. M. Ohh, et al., Nat Cell Biol 2, 423-7. (2000). • 13. T. Kamura, et al., Proc Natl Acad Sci USA 97, 10430-5. (2000). • 14. K. Tanimoto, Y. Makino, T. Pereira, L. Poellinger, Embo J 19, 4298-309. (2000). • 15. M. A. Goldberg, S. P. Dunning, H. F. Bunn, Science 242, 1412-1415 (1988). • 16. G. L. Wang, G. L. Semenza, Blood 82, 3610-3615 (1993). • 17. G. L. Semenza, Cell 98, 281-284 (1999). • 18. Hypoxia (<0.1% oxygen) was obtained in a workstation with O2, CO2 and temperature control (Ruskinn Technologies, Leeds, UK). For hypoxic harvest, buffers were preincubated in the chamber overnight. RCC4-VHL.HA, labelling conditions and co-immunoprecipitation assays have been described previously (11); in the current study 12.5 μM MG132 was used for proteasomal inhibition. For standard harvest, the cells were removed from the chamber after hypoxic exposure, prior to cell lysis. Co-immunoprecipitation assays on all lysates were performed at 4° C. under ambient oxygen conditions. […] When programming in hypoxia, reaction mix was preincubated in the workstation for 10 minutes before addition of the DNA template. […]

T1 sequence (P40337 whole entry): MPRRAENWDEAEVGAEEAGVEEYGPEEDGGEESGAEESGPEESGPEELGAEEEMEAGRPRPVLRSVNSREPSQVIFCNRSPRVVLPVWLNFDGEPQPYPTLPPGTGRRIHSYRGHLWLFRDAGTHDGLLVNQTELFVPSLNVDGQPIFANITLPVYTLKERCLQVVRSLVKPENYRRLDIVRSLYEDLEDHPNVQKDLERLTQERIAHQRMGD

blocking of HIF-1α/pVHL interaction by polypeptide after exposure to cell extract (cell extract supplemented with Fe(II))	Substance	blocking of HIF-1α/pVHL interaction by polypeptide not exposed to cell extract (untreated polypeptide)
	19:Pro564Hyp: polypeptide (HIF-1α residues 556-574) containing a trans-4-hydroxy-S-proline residue at position 564	highly effective at inhibiting the HIF-1α/pVHL interaction; also recorded: blocked the HIF-1α/pVHL interaction without the need for exposure to cell extract
blocking activity	19:WT: polypeptide comprising HIF-1α residues 556 to 574	
